Data taken from patent US20250019439A1 (Adimab, published 2025).

Experiments:
ADI-26927 Fab = target: T1, ADI-26927 Fab; assay: BLI; tip ADI-34134 IgG, solution anti-CD3 Fab
T1 construct: anti-CD3 Fab by papain digestion of the IgG
Procedure: (§1) ForteBio affinity measurements were performed generally as previously described (Estep et al., MAbs. 2013 5(2):270-8). Briefly, ForteBio affinity measurements were performed by loading antibody IgG or Fabs on-line onto AHC sensors. Sensors were equilibrated off-line in assay buffer for 30 minutes and then monitored on-line for 60 seconds for baseline establishment. For avid binding measurement, sensors with loaded antibodies were exposed to IgG or Fab solutions for 3 minutes, afterwards they were transferred to assay buffer for 3 minutes for off-rate measurement. Kinetics data were fit using a 1:1 binding model in the data analysis software provided by ForteBio to obtain equilibrium dissociation constant (KD=koff/kₒₙ) values. In each column, tip-immobilized antibodies are listed first and solution antibodies second.
(§2) In each column, tip-immobilized antibodies are listed first and solution antibodies second.

ADI-26913 Fab = target: T2, ADI-26913 Fab; assay: BLI; tip ADI-34134 IgG, solution anti-CD3 Fab
T2 construct: anti-CD3 Fab by papain digestion of the IgG
Procedure: as §1, §2

ADI-26921 Fab = target: T3, ADI-26921 Fab; assay: BLI; tip ADI-34134 IgG, solution anti-CD3 Fab
T3 construct: anti-CD3 Fab by papain digestion of the IgG
Procedure: as §1, §2

ADI-26941 Fab = target: T4, ADI-26941 Fab; assay: BLI; tip ADI-34134 IgG, solution anti-CD3 Fab
T4 construct: anti-CD3 Fab by papain digestion of the IgG
Procedure: as §1, §2

ADI-26906 Fab = target: T5, ADI-26906 Fab; assay: BLI; tip ADI-34134 IgG, solution anti-CD3 Fab
T5 construct: anti-CD3 Fab by papain digestion of the IgG
Procedure: as §1, §2

ADI-26954 Fab = target: T6, ADI-26954 Fab; assay: BLI; tip ADI-34134 IgG, solution anti-CD3 Fab
T6 construct: anti-CD3 Fab by papain digestion of the IgG
Procedure: as §1, §2

ADI-22523 Fab = target: T7, ADI-22523 Fab; assay: BLI; tip ADI-34134 IgG, solution anti-CD3 Fab
T7 construct: anti-CD3 Fab by papain digestion of the IgG
Procedure: as §1, §2

ADI-26916 anti-CD3 bsIgG = target: T8, ADI-26916 anti-CD3 bsIgG; assay: BLI; tip anti-CD3 bsIgG, solution ADI-34145 IgG
T8 construct: anti-HER2 IgG with one Fab arm replaced by the anti-CD3 scFv (printed 'Vx-VH', read as VL-VH); S354C and Y349C mutations; also called anti-CD3 bsIgG (ADI-26916 scFv); not shown: scFv linker; anti-HER2 Fab arm (heavy and light chain); hinge and Fc with S354C/Y349C; copies: 1 + 1
Procedure: as §1
(§3) Additional analysis was conducted using bispecific antibody formats incorporating anti-CD3 antibody variable domains. Bispecific antibodies were prepared using standard IgG formats (bsIgG) with replacement of Fab arms with anti-CD3 scFvs in Vx-VH orientation and with S354C and Y349C mutations for disulfide stabilization. Antibodies used for Fab arm replacement were anti-HER2 IgG antibodies, with one Fab arm from each replaced by a scFv corresponding to a different anti-CD3 antibody. […] In each column, tip-immobilized antibodies are listed first and solution antibodies second. Anti-CD3 antibodies associated with incorporated scFvs are listed by antibody number.

ADI-22523 anti-CD3 bsIgG = target: T9, ADI-22523 anti-CD3 bsIgG (In the assayed molecule VL and VH are joined as one scFv (printed 'Vx-VH' orientation) by an undisclosed linker and fused to an Fc, paired with an anti-HER2 half-IgG. They are given here as two …); assay: BLI; tip anti-CD3 bsIgG, solution ADI-34145 IgG
T9 construct: anti-HER2 IgG with one Fab arm replaced by the anti-CD3 scFv (printed 'Vx-VH', read as VL-VH); S354C and Y349C mutations; not shown: scFv linker between VL and VH; anti-HER2 heavy and light chains; hinge and Fc with S354C/Y349C
Procedure: as §1, §3

CTL-19672 anti-CD3 bsIgG = target: T10, CTL-19672 anti-CD3 bsIgG (In the assay the two domains were one scFv (VL-VH orientation, linker not given). It replaced one Fab arm of an anti-HER2 IgG; S354C and Y349C mutations are stated for disulfide stabilization.); assay: BLI; tip anti-CD3 bsIgG, solution ADI-34145 IgG
T10 construct: anti-HER2 IgG with one Fab arm replaced by the anti-CD3 scFv (printed 'Vx-VH', read as VL-VH); S354C and Y349C mutations; not shown: scFv linker between VL and VH; anti-HER2 heavy and light chains of the other arm; hinge and Fc (with S354C / Y349C)
Procedure: as §1, §3

CTL-19613 anti-CD3 bsIgG = target: T11, CTL-19613 anti-CD3 bsIgG (In the assay the two domains were one scFv (VL-VH orientation, linker not given). It replaced one Fab arm of an anti-HER2 IgG; S354C and Y349C mutations are stated for disulfide stabilization.); assay: BLI; tip anti-CD3 bsIgG, solution ADI-34145 IgG
T11 construct: anti-HER2 IgG with one Fab arm replaced by the anti-CD3 scFv (printed 'Vx-VH', read as VL-VH); S354C and Y349C mutations; also called anti-CD3 bsIgG (CTL-19613 scFv); not shown: scFv linker between VL and VH; anti-HER2 heavy and light chains of the other arm; hinge and Fc (with S354C / Y349C)
Procedure: as §1, §3

ADI-26913 anti-CD3 bsIgG = target: T12, ADI-26913 anti-CD3 bsIgG; assay: BLI; tip anti-CD3 bsIgG, solution ADI-34145 IgG
T12 construct: anti-HER2 IgG with one Fab arm replaced by the anti-CD3 scFv (printed 'Vx-VH', read as VL-VH); S354C and Y349C mutations; also called anti-CD3 bsIgG (ADI-26913 scFv); not shown: scFv linker; anti-HER2 Fab arm (heavy and light chain); hinge and Fc with S354C/Y349C
Procedure: as §1, §3

ADI-26954 anti-CD3 bsIgG = target: T13, ADI-26954 anti-CD3 bsIgG; assay: BLI; tip anti-CD3 bsIgG, solution ADI-34145 IgG
T13 construct: anti-HER2 IgG with one Fab arm replaced by the anti-CD3 scFv (printed 'Vx-VH', read as VL-VH); S354C and Y349C mutations; also called anti-CD3 bsIgG (ADI-26954 scFv); not shown: scFv linker; anti-HER2 Fab arm (heavy and light chain); hinge and Fc with S354C/Y349C
Procedure: as §1, §3

ADI-26920 anti-CD3 bsIgG = target: T14, ADI-26920 anti-CD3 bsIgG; assay: BLI; tip anti-CD3 bsIgG, solution ADI-34145 IgG
T14 construct: anti-HER2 IgG with one Fab arm replaced by the anti-CD3 scFv (printed 'Vx-VH', read as VL-VH); S354C and Y349C mutations; also called anti-CD3 bsIgG (ADI-26920 scFv); not shown: scFv linker; anti-HER2 Fab arm (heavy and light chain); hinge and Fc with S354C/Y349C
Procedure: as §1, §3

T13 sequence (VH, as listed by the source limits assumed, chain 1 of 2): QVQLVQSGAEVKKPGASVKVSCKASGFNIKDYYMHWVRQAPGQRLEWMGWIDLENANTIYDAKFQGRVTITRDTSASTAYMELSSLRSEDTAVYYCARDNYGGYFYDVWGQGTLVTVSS
T13 sequence (VL, as listed by the source limits assumed, chain 2 of 2): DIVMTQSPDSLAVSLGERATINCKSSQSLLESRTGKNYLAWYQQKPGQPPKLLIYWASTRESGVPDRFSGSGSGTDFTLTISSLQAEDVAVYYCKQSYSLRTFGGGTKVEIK
T3 sequence (VH, as listed by the source limits assumed, chain 1 of 2): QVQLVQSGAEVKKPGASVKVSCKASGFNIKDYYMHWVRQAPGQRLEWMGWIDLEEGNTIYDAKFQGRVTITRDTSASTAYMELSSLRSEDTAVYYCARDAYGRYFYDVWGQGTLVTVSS
T3 sequence (VL, as listed by the source limits assumed, chain 2 of 2): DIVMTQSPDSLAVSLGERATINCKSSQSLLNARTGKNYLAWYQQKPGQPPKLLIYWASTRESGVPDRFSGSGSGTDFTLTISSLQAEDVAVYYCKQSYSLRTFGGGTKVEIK
T4 sequence (VH, as listed by the source limits assumed, chain 1 of 2): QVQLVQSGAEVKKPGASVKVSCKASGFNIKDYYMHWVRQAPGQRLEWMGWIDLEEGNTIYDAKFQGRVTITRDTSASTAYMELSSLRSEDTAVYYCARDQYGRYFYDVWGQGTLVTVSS
T4 sequence (VL, as listed by the source limits assumed, chain 2 of 2): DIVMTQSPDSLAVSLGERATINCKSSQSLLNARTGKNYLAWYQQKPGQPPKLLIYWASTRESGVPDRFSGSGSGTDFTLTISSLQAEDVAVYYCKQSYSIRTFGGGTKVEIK
T1 sequence (VH, as listed by the source limits assumed, chain 1 of 2): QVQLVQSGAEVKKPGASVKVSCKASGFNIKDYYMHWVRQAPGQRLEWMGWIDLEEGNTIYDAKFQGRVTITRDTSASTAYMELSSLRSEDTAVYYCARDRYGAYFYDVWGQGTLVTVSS
T12 sequence (VH, as listed by the source limits assumed, chain 1 of 2): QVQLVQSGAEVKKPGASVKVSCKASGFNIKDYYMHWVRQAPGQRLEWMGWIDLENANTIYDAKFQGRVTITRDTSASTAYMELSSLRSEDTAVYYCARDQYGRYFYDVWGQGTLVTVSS
T12 sequence (VL, as listed by the source limits assumed, chain 2 of 2): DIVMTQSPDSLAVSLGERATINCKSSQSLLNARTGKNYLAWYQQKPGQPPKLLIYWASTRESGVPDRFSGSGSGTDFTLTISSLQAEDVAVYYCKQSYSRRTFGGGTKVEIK
T9 sequence (VH, as listed by the source limits assumed, chain 1 of 2): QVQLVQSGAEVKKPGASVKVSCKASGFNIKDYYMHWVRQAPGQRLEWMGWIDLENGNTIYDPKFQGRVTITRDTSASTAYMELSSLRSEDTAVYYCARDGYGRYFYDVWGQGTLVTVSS
T9 sequence (VL, as listed by the source limits assumed, chain 2 of 2): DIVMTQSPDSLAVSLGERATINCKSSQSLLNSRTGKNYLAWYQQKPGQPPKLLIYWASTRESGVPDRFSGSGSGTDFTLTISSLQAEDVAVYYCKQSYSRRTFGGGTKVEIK
T14 sequence (VH, as listed by the source limits assumed, chain 1 of 2): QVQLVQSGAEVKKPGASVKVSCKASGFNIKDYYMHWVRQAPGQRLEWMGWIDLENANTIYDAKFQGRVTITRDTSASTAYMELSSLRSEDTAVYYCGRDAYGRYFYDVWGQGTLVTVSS
T5 sequence (VH, as listed by the source limits assumed, chain 1 of 2): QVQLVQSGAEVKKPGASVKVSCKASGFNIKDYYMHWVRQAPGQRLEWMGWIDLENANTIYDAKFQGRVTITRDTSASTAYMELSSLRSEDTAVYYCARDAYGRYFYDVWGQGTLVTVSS
T10 sequence (VH, as listed by the source limits assumed, chain 1 of 2): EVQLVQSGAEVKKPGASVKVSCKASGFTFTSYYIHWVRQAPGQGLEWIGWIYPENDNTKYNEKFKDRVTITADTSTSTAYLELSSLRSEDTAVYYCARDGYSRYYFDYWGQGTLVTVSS
T10 sequence (VL, as listed by the source limits assumed, chain 2 of 2): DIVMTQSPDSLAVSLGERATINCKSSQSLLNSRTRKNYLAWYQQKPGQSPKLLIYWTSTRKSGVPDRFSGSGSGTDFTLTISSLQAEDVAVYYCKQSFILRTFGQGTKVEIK
T8 sequence (VH, as listed by the source limits assumed, chain 1 of 2): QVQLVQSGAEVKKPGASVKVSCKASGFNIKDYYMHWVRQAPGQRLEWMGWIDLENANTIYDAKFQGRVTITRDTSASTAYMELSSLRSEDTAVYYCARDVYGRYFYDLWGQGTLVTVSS

Binder | Kd (ADI-26927 Fab) [µM] | Kd (ADI-26913 Fab) [µM] | Kd (ADI-26921 Fab) [µM] | Kd (ADI-26941 Fab) [µM] | Kd (ADI-26906 Fab) [µM] | Kd (ADI-26954 Fab) [µM] | Kd (ADI-22523 Fab) [µM] | Kd (ADI-26916 anti-CD3 bsIgG) [µM] | Kd (ADI-22523 anti-CD3 bsIgG) [µM] | binding result (CTL-19672 anti-CD3 bsIgG) | binding result (CTL-19613 anti-CD3 bsIgG) | Kd (ADI-26913 anti-CD3 bsIgG) [µM] | Kd (ADI-26954 anti-CD3 bsIgG) [µM] | Kd (ADI-26920 anti-CD3 bsIgG) [µM]
ADI-34134 IgG (antibody, V domains shown) VH: QVQLVQSGAEVKKPGSSVKVSCKASGGTFSSYAISWVRQAPGQGLEWMGGIIPIFGTANYAQKFQGRVTITADESTSTAYMELSSLRSEDTAVYYCARGAPNYYGSGGYDDGWFDPWGQGTLVTVSS VL: EIVLTQSPGTLSLSPGERATLSCRASQSVSSDYLAWYQQKPGQAPRLLIYGASSRATGIPDRFSGSGSGTDFTLTISRLEPEDFAVYYCQQFGRVPTFGGGTKVEIK | 0.0382 | 0.0798 | 0.185 | 0.138 | 0.0178 | 0.157 | 0.00562 | – | – | – | – | – | – | –
ADI-34145 IgG (antibody, V domains shown, anti-ID IgG) VH: EVQLLESGGGLVQPGGSLRLSCAASGFTFSSYAMSWVRQAPGKGLEWVSTISGSGGSTYYADSVKGRFTISRDNSKNTLYLQMNSLRAEDTAVYYCARLGGRRGSGSSYYYYYGMDVWGQGTTVTVSS VL: not shown | – | – | – | – | – | – | – | 0.0571 | 0.00913 | no binding | no binding | 0.0146 | 0.0278 | 0.00672
